{
  "source": "patent US20230110188A1",
  "about": "(ARGENX IIP, published 2023)",
  "key": {"[1]": {"target": "T1, Human MuSK (R&D Systems, cat. 10189-MK, histidine tag) (human, UniProt O15146 24-495)", "T1 construct": "Bought protein; also called human monomeric MuSK-6xhis; not shown: histidine tag (6xhis)", "T1 sequence": "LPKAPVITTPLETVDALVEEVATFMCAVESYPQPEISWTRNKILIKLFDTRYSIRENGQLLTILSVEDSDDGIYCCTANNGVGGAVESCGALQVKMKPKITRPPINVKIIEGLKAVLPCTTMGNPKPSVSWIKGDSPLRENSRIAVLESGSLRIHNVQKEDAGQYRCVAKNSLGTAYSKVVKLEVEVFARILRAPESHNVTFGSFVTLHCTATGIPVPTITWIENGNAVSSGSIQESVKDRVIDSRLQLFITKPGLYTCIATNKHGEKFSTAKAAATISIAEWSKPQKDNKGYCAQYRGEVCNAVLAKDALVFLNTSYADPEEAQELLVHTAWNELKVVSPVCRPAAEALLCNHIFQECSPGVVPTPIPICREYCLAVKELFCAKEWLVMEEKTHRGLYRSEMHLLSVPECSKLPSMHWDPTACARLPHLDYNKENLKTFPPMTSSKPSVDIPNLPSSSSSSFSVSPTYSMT", "test": "SPR (Biacore), MuSK-coated chip presaturated with 500 nM 3D10a (competitor)", "description": "(§1) A chip was coated with ˜5000 RU of human MuSK (Lot nr DHUCO 11908A, batch nr 1089_MK). In a first experiment the saturating concentration of the pre-leads was determined. This is the concentration where the amplitude of a specific pre-lead doesn't increase anymore when additional pre-lead is injected on the immobilized MuSK."}, "[2]": {"target": "T2, human monomeric MuSK FLAG streptavidin (in house produced, batch 27-6-2019) (human, UniProt O15146 24-495)", "T2 construct": "also called full length MuSK; not shown: FLAG and streptavidin tags", "T2 sequence": "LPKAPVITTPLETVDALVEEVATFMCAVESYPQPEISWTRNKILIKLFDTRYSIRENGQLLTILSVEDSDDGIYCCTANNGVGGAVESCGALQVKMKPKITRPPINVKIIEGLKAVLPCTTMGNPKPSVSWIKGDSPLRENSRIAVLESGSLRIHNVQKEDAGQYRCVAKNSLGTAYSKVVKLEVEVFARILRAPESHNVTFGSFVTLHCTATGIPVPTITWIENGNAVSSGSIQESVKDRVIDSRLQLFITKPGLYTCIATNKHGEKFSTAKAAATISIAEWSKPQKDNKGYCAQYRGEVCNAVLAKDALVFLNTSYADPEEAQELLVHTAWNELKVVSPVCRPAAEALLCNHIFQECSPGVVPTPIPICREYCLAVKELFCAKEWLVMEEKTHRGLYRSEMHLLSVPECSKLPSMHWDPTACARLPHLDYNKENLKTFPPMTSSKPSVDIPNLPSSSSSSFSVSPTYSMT", "test": "epitope binning ELISA (coated anti-MuSK Fab, MuSK, IgG, anti-Fc HRP); competitor: 3B5wt", "description": "(§2) For epitope binning—An ELISA plate was coated at 1 μg/ml of the anti-MuSK Fabs and incubated overnight at 4° C. Next, the plate was wash with PBS followed by blocking with 1% casein in PBS for one hour. After washing the plate, 1 μg/ml of human monomeric MuSK (in house produced, batch 27-6-2019) was incubated for one hour at RT. The plate was washed and anti-MuSK antibodies at 0.3-10 μg/ml were added to the plate and incubated for one hour at RT. After washing the plate, detection antibody (goat anti-human Fc HRP (Jackson Immunoresearch cat. 109-035-098)) was added at 5000 fold dilution in PBS 0.1% casein. The plate was incubated for one hour at RT and washed with PBS-T. TMB was added and the reaction was stopped by adding H2504. […]\n(§3) For the epitope binning ELISA, a plate was coated with anti-MuSK Fab and human monomeric MuSK was added after blocking the plate. Next the different antibodies were added and allowed to bind."}, "[3]": {"target": "T2, human monomeric MuSK FLAG streptavidin …", "test": "epitope binning ELISA (coated anti-MuSK Fab, MuSK, IgG, anti-Fc HRP); competitor: 4D3", "description": "as §2, §3"}, "[4]": {"target": "T1, Human MuSK (R&D Systems, cat. 10189-MK, …)", "test": "SPR (Biacore), MuSK-coated chip, antibody alone (run of first antibody 4D3)", "description": "as §1"}, "[5]": {"target": "T1, Human MuSK (R&D Systems, cat. 10189-MK, …)", "test": "SPR (Biacore), MuSK-coated chip, antibody alone (run of first antibody 3F6c)", "description": "as §1"}, "[6]": {"target": "T1, Human MuSK (R&D Systems, cat. 10189-MK, …)", "test": "SPR (Biacore), MuSK-coated chip, antibody alone (run of first antibody 3D10a)", "description": "as §1"}, "[7]": {"target": "T2, human monomeric MuSK FLAG streptavidin …", "test": "epitope binning ELISA (coated anti-MuSK Fab, MuSK, IgG, anti-Fc HRP); competitor: 3D9b", "description": "as §2, §3"}, "[8]": {"target": "T1, Human MuSK (R&D Systems, cat. 10189-MK, …)", "test": "SPR (Biacore), MuSK-coated chip presaturated with 3F6c"}, "[9]": {"target": "T2, human monomeric MuSK FLAG streptavidin …", "test": "epitope binning ELISA (coated anti-MuSK Fab, MuSK, IgG, anti-Fc HRP); competitor: 3F6c", "description": "as §2, §3"}, "[10]": {"target": "T1, Human MuSK (R&D Systems, cat. 10189-MK, …)", "test": "SPR (Biacore), MuSK-coated chip presaturated with 500 nM 3F6c (competitor)", "description": "as §1"}, "[11]": {"target": "T1, Human MuSK (R&D Systems, cat. 10189-MK, …)", "test": "SPR (Biacore), MuSK-coated chip, antibody alone (run of first antibody 3D9b)", "description": "as §1"}, "[12]": {"target": "T1, Human MuSK (R&D Systems, cat. 10189-MK, …)", "test": "SPR (Biacore), MuSK-coated chip presaturated with 500 nM 4D3 (competitor)", "description": "as §1"}, "[13]": {"target": "T2, human monomeric MuSK FLAG streptavidin …", "test": "epitope binning ELISA (coated anti-MuSK Fab, MuSK, IgG, anti-Fc HRP); competitor: 3D10a", "description": "as §2, §3"}, "[14]": {"target": "T1, Human MuSK (R&D Systems, cat. 10189-MK, …)", "test": "SPR (Biacore), MuSK-coated chip presaturated with 500 nM 3D9b (competitor)", "description": "as §1"}},
  "data": [
    {"binder": "3B5 (antibody, V domains shown, also called 3B5wt) VH: QVQLVQSGAVVAKPGASVQVSCKTSGYTFTGQYLHWVRQAPGQGLEWIGWINPSSGVTKFAEKFEGRATMTRDTSITTAYIDLRSLRSDDTATYYCATLSLGVYYVGMVAWGQGTLVTVSS VL: ELTQPPSVSVSPGQTATITCSGDGLAQQHVYWFQQRPGQAPLLIIYKDIERPSGIPERFSGSSSGTTAMLTISGVQAEDEADYYCQSGDRTATSVLFGGGTKMTVLG", "values": [
      {"measurement": "amplitude of prelead after presaturating MuSK (RU)", "setting": "[1]", "result": 2260, "unit": "RU"},
      {"measurement": "extra amplitude (%)", "setting": "[1]", "result": 344, "unit": "%"},
      {"measurement": "normalized extra amplitude (%)", "setting": "[1]", "result": 342, "unit": "%"},
      {"measurement": "OD 450 nm", "setting": "[2]", "result": 0.048, "unit": "OD"},
      {"measurement": "OD 450 nm", "setting": "[3]", "result": 1.96, "unit": "OD"},
      {"measurement": "amplitude of prelead without presaturating MuSK (RU)", "setting": "[4]", "result": 151, "unit": "RU"},
      {"measurement": "amplitude of prelead without presaturating MuSK (RU)", "setting": "[5]", "result": 562, "unit": "RU"},
      {"measurement": "amplitude of prelead without presaturating MuSK (RU)", "setting": "[6]", "result": 658, "unit": "RU"},
      {"measurement": "OD 450 nm", "setting": "[7]", "result": 1.99, "unit": "OD"},
      {"measurement": "fold of binding signal against amplitude on non-saturated MuSK", "setting": "[8]", "result": "≥ 3", "unit": "fold"},
      {"measurement": "OD 450 nm", "setting": "[9]", "result": 2.03, "unit": "OD"},
      {"measurement": "amplitude of prelead after presaturating MuSK (RU)", "setting": "[10]", "result": 2230, "unit": "RU"},
      {"measurement": "extra amplitude (%)", "setting": "[10]", "result": 397, "unit": "%"},
      {"measurement": "normalized extra amplitude (%)", "setting": "[10]", "result": 395, "unit": "%"},
      {"measurement": "amplitude of prelead without presaturating MuSK (RU)", "setting": "[11]", "result": 399, "unit": "RU"},
      {"measurement": "amplitude of prelead after presaturating MuSK (RU)", "setting": "[12]", "result": 141, "unit": "RU"},
      {"measurement": "extra amplitude (%)", "setting": "[12]", "result": 93, "unit": "%"},
      {"measurement": "normalized extra amplitude (%)", "setting": "[12]", "result": 88.1, "unit": "%"},
      {"measurement": "OD 450 nm", "setting": "[13]", "result": 1.88, "unit": "OD"},
      {"measurement": "amplitude of prelead after presaturating MuSK (RU)", "setting": "[14]", "result": 2150, "unit": "RU"},
      {"measurement": "extra amplitude (%)", "setting": "[14]", "result": 539, "unit": "%"},
      {"measurement": "normalized extra amplitude (%)", "setting": "[14]", "result": 538, "unit": "%"}
    ]}
  ]
}
